This note sets out measurements from article PMC8326396, “Label-free Electrochemical Impedance Spectroscopy Aptasensor for Ultrasensitive Detection of Lung Cancer Biomarker Carcinoembryonic Antigen”.

In this data set the target is carcinoembryonic antigen (CEA) (UniProt P06731 35-685). Kind of data set: electrochemical impedance spectroscopy; CEA 0.2-15.0 ng/ml linear range; LOD 0.085 ng/ml (not a Kd); CEA incubated on electrode 1 h at 37 C (70 min found optimal), wash with 0.01 M [Fe(CN)6] PBS pH 7.4; EIS in 5 mM [Fe(CN)6]3-/4-, 0.1 M PBS pH 7.0, KCl (0.1 M or 1 M, stated inconsistently). The following applies: protein: commercial.
Chain of carcinoembryonic antigen (CEA) (P06731 35-685): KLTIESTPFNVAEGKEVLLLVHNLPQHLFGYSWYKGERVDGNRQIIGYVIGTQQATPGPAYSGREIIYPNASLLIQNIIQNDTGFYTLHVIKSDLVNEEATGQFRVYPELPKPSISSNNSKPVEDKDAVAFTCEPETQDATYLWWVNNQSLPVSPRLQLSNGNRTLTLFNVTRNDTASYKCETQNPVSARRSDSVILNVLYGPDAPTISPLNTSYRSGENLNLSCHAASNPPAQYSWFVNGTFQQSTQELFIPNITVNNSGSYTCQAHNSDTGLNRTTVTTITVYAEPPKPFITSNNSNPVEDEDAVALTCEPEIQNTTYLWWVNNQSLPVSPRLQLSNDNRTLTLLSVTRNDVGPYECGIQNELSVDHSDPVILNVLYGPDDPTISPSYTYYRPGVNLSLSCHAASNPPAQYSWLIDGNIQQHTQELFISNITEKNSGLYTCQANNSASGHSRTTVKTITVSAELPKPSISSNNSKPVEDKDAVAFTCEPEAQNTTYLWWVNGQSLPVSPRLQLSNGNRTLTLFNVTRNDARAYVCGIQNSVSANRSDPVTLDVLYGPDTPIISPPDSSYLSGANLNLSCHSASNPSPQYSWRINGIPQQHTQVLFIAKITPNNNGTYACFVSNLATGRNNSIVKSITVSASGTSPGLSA

For ATACCAGCTTATTCAATT (ssDNA, 5'-SH (thiol)) [CEA aptamer (CEA-A)], the binding result is listed as “binds”.
